From patent US20240084023A1 (NGM BIOPHARMACEUTICALS, published 2024)

Columns and labels:
Experiment in all cases: flow cytometry on transfected 293XP cells
[1] = target: T1, GCGR extracellular domain alanine mutant Y84A (human, UniProt P47871 26-136, limits assumed)
T1 construct: expressed in 293XP cells
T1 chain: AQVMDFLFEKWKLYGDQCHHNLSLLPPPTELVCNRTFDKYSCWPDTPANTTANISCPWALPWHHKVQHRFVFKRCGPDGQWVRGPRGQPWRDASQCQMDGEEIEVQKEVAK
Experimental: (§1) To assist in gathering information on the GCGR epitope that the 6B5 binning group bound to, “alanine scanning mutagenesis” was undertaken. These alanine scanning mutagenesis platform is a technique used for mapping both linear and conformational antigen epitopes by evaluating the effects of point mutations across a target protein. Single residues in a target protein are replaced by alanine one at a time to construct a mutant library. Each variant is assayed for its ability to bind to an antibody of interest. […] Amino acids across the extracellular domain of GCGR were mutated to alanine and the anti-GCGR antibody Hz6B5 was tested for binding to the alanine mutants.
(§2) The wild-type GCGR extracellular domain and the alanine mutants were each transfected into 293XP cells and incubated for 24 hours. Antibody Hz6B5 was incubated with the transfected cells for 30 minutes at 4° C. After washing with PBS/1% BSA/0.1% azide, the cells were incubated with a labeled anti-mouse Fc antibody (Jackson Immunoresearch) for 30 minutes at 4° C. After washing with PBS/1% BSA/0.1% azide, the cells were analyzed using a flow cytometer BD (FACSCalibur instrument) and cytometric analytical software (FlowJo). A serum sample from a mouse immunized with human GCGR was used as positive control to confirm expression of the alanine mutants.

[2] = target: T2, GCGR extracellular domain alanine mutant Q113A (human, UniProt P47871 26-136, limits assumed)
T2 construct: expressed in 293XP cells
T2 chain: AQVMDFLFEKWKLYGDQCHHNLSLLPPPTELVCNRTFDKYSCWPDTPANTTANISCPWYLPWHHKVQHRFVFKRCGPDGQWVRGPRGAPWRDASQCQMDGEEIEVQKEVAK
Experimental: as §1, §2

[3] = target: T3, GCGR extracellular domain alanine mutant Y39A (human, UniProt P47871 26-136, limits assumed)
T3 construct: expressed in 293XP cells
T3 chain: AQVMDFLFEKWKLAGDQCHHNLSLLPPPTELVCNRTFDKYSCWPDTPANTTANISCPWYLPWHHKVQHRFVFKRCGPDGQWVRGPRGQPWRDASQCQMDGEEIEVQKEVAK
Experimental: as §1, §2

[4] = target: T4, wild-type GCGR extracellular domain expressed in 293XP cells (human, UniProt P47871 26-136, limits assumed)
T4 construct: transfected into 293XP cells; also called WT GCGR
Experimental: as §1, §2

[5] = target: T5, GCGR extracellular domain alanine mutant H45A (human, UniProt P47871 26-136, limits assumed)
T5 construct: expressed in 293XP cells
T5 chain: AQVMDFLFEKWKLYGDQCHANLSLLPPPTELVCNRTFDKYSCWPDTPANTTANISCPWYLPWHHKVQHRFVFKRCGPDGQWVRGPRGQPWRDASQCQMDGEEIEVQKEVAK
Experimental: as §1, §2

[6] = target: T6, GCGR extracellular domain alanine mutant F33A (human, UniProt P47871 26-136, limits assumed)
T6 construct: expressed in 293XP cells
T6 chain: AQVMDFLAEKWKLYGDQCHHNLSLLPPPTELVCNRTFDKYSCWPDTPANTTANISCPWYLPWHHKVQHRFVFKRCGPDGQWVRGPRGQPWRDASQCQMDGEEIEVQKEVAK
Experimental: as §1, §2

[7] = target: T7, GCGR extracellular domain alanine mutant W106A (human, UniProt P47871 26-136, limits assumed)
T7 construct: expressed in 293XP cells
T7 chain: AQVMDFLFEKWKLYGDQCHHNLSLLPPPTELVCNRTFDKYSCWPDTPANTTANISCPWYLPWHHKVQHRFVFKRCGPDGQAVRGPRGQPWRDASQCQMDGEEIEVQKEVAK
Experimental: as §1, §2

[8] = target: T8, GCGR extracellular domain alanine mutant K64A (human, UniProt P47871 26-136, limits assumed)
T8 construct: expressed in 293XP cells
T8 chain: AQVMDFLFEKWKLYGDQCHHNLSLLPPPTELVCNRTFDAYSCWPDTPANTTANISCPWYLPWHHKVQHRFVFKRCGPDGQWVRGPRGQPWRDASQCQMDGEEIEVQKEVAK
Experimental: as §1, §2

[9] = target: T9, GCGR extracellular domain alanine mutant W83A (human, UniProt P47871 26-136, limits assumed)
T9 construct: expressed in 293XP cells
T9 chain: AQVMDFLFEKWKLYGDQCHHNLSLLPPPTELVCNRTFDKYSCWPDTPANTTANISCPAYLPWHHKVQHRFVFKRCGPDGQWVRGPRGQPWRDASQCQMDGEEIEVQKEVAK
Experimental: as §1, §2

[10] = target: T10, GCGR extracellular domain alanine mutant W36A (human, UniProt P47871 26-136, limits assumed)
T10 construct: expressed in 293XP cells
T10 chain: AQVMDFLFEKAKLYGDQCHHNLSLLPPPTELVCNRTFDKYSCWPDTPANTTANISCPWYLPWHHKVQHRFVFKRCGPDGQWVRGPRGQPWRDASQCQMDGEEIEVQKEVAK
Experimental: as §1, §2

[11] = target: T11, GCGR extracellular domain alanine mutant W87A (human, UniProt P47871 26-136, limits assumed)
T11 construct: expressed in 293XP cells
T11 chain: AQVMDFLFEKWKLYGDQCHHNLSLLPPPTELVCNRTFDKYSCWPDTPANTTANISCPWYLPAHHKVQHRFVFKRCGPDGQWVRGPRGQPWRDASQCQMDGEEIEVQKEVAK
Experimental: as §1, §2

[12] = target: T12, GCGR extracellular domain alanine mutant R94A (human, UniProt P47871 26-136, limits assumed)
T12 construct: expressed in 293XP cells
T12 chain: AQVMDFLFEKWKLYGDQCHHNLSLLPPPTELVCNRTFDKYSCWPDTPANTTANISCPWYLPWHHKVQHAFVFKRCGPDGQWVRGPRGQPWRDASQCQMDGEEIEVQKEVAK
Experimental: as §1, §2

[13] = target: T13, GCGR extracellular domain alanine mutant R111A (human, UniProt P47871 26-136, limits assumed)
T13 construct: expressed in 293XP cells
T13 chain: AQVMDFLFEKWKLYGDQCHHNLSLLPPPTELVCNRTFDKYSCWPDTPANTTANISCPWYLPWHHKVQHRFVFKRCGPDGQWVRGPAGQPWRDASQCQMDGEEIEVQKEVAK
Experimental: as §1, §2

% positive cells [1]: 63.4%
% positive cells [2]: 83.4%
% positive cells [3]: 65.8%
% positive cells [4]: 87.8%
% positive cells [5]: 81.3%
% positive cells [6]: 71.8%
% positive cells [7]: 60.8%
% positive cells [8]: 87.6%
% positive cells [9]: 72.6%
% positive cells [10]: 70.9%
% positive cells [11]: 74.7%
% positive cells [12]: 0%
% positive cells [13]: 84.5%
B1: anti-GCGR antibody Hz6B5 (antibody, V domains shown)
VH: QVQLVQSGAEVKKPGSSVKVSCKASGFTFTNHWLGWVRQAPGQGLEWIGDIYPGGYYINYNEKFKGRVTITADESTSTAYMELSSLRSEDTAVYYCARHTNYGSDYWGQGTTVTVSS
VL: DVVMTQSPLSLPVTLGQPASISCRSSQSIVDSYGNTFLEWYQQRPGQSPRLLIYKVSNRLSGVPDRFSGSGSGTDFTLKISRVEAEDVGVYYCFQGSHVPWTFGQGTKLEIK
notes: Humanized 6B5
